# Reference: the nanobody polyreactivity screen of Harvey et al. (2022)
# Assay: yeast display, Sf9 membrane polyspecificity reagent, FACS + sequencing; frameworks hold sequencing errors
# Method in brief: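 A nanobody's polyreactivity label depends on the gate it was sorted from. Yeast display cells were stained with 10% biotinylated, detergent-solubilized Sf9 membrane reagent for 1 hour at 4 °C, enriched on streptavidin microbeads and sorted by FACS. The low and high (top ~1%) gates were set on anti-HA fluorescence for expression and streptavidin fluorescence for reagent binding.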
row,Sequence,polyreactivity (PSR sort gate)
1,QVQLVESGGGLVQAGGSLRLSCAASGSTLVYNDMGWYRQAPGKEREFVAAIRSNDGSTYYADSVKGRFTISRDNAKNTVYLQMNSLKPEDTAVYYCATTQAYRGENYNYWGQGTQVTVSS,low polyreactivity
2,QVQLVESGGGLVQAGGSLRLSCAASGSTLWDYAMGWYRQAPGKERELVAAITQDGGSTYYADSVKGRFTISRDNAKNTVYLQMNSLKPEDTAVYYCAAEYWYDGGGYWGQGTQVTVSS,low polyreactivity
3,QVQLVESGGGLVQAGGSLRLSCAASGSTLYDYTMGWYRQAPGKERELVAAIRVSGARTFYADSVKGRFTISRDNAKNTVYLQMNSLKPEDTAVYYCAAEFGSFVSPYNYYYWGQGTQVTVSS,low polyreactivity
4,QVQLVESGGGLVQAGGSLRLSCAASGSTLYTYAMGWYRQAPGKERELVADISTGGSTYYADSVKGRFTISRDNAKNTVYLQMNSLKPEDTAVYYCAAESWFDPVDYWGQGTQVTVSS,low polyreactivity
5,QVQLVESGGGLVQAGGSLRLSCAASGSTLYTYAMGWYRQAPGKERELVATISWSGSSTYYADSVKGRFTISRDNAKNTVYLQMNSLKPEDTAVYYCNKVPGKSGVPPDYDYWGQGTQVTVSS,high polyreactivity
6,QVQLVESGGGLVQAGGSLRLSCAASGSTLYYYAMGWSRQAPGKERELVAAISWSGGITYYADSVKGRFTISRDNAKNTVYLQMNSLKPEDTAVYYCAADKYQGYTFYQGYPGGGGYWGQGTQVTVSS,low polyreactivity
7,QVQLVESGGGLVQAGGSLRLSCAASGSTNVVNAMGRYRQPPGKERELVAAITYSGGSTYYADSVKGRFTISRDNAKNTVYLQQNSLKPEDTAVYYCNTTLRDSRQYVDRAPYTRYDYWGQGTQVTVSS,low polyreactivity
8,QVQLVESGGGLVQAGGSLRLSCAASGSTRYNAKGWYRQAPGNERELVASIRGNAGSTYYADSVKGRFTISRDNAKNTVYLQMNSLKPEDTAVYYCNARYWYRYGGYKPVGGYYWGQGTQVTVSS,high polyreactivity
9,QVQLVESGGGLVQAGGSLRLSCAASGSTRYNAMGWYRQAPGKERELVASIRGNAGSTYYADSVKGRFTISRDNAKNTVYLQMNSLKPEDTAVYYCNARYWYRYGGYKPVGGYYWGQGTQVTVSS,high polyreactivity
10,QVQLVESGGGLVQAGGSLRLSCAASGSTSANYAMGWYRPAPGKERELVAAISGGARTNYADSVKGRFTISRDNAKNTVYLQMNSLKPEDTAVYYCATDAYYYNLLYLFPRYDYWGQGTQVTVSS,low polyreactivity
11,QVQLVESGGGLVQAGGSLRLSCAASGSTSGPYAMGWYRQAPGKETELVATISWIGDRTYYADSVKGRFTISRDNAKNTIYLQMNSLKPEDTAVYYCNADYRGYANLEGDYWGQGTQVTVSS,low polyreactivity
12,QVQLVESGGGLVQAGGSLRLSCAASGSTSGSYGMGWYRQAPGKERELVAAIRWSGGRTYYADSVKGRFTISRDNAKNTVYLQMNSLKPEDTAVYYCAKYRYTVAGYNYWGQGTQVTVSS,high polyreactivity
13,QVQLVESGGGLVQAGGSLRLSCAASGSTSIYYTMGWYRQAPGKERELVAYADSVKGRFTISRDNAKNTVYLQMNRLKPEDTAGYYCAAPRTYYSELTSPYDYWGQGAQVTVSS,low polyreactivity
14,QVQLVESGGGLVQAGGSLRLSCAASGSTSKSYTMGWYRQAPGKERELVAAISYSGVSTYYADSVKGRFTISRDNAKNTVYLQMNSLKPEDTAVYYCAKRTRKYTVGYYYWGQGTQVTVSS,high polyreactivity
15,QVQLVESGGGLVQAGGSLRLSCAASGSTSKWYAMGWYRPAPGKERELVAAITKTGGRTYYADSVKGRFTISRDNAKNTVYLQMNSLKPEDTAVYYCAVEYLRGFIVIYDYWGQGTQVTVSS,high polyreactivity
16,QVQLVESGGGLVQAGGSLRLSCAASGSTSLIYAMGWYRQAPGKERELVARISGSGGSTFYADSVKGRFTISRDNAKNTVFLQMNSLKPEDTAVYYCAAYIRGRRYNWATVGYNYWGQGTQVTVSS,high polyreactivity

row,Sequence,polyreactivity (PSR sort gate)
1,QVQLVESGGGLVQAGGSLRLSCAASGSTSPIYAMGWYRQAPGKERELVAAINGVGSTNYADSVKGRFTISRDNAKNTVYLQMNSLKPEDTAVYYCNTRYSPGYQGTEVDYWGQGTQVTVSS,low polyreactivity
2,QVQLVESGGGLVQAGGSLRLSCAASGSTSQPYAMGWYRQAPGQERELVASITNGGITYYADSVKGRFTISRDNAKNTVYLQMNSLKPEDTAVYYCNTVSYTEFDYWGQGTQVTVSS,low polyreactivity
3,QVQLVESGGGLVQAGGSLRLSCAASGSTSRGNAMAWYRKSPGKERELVATISQSGGNTFYADSVKGRFTISLDNAKNTVYLQMNSLNPEDTAVYYCAAGRYWFAWYDYWGQGTQVTVSS,high polyreactivity
4,QVQLVESGGGLVQAGGSLRLSCAASGSTSRLYAMGWYSQAPGKERELVAAIRYSSGTTYYADSVTVRFTISRDNAKNTVYLQMNSLKPEDTAVYYCAAVTIRRYGPAEYNYWGQGTQVTVSS,high polyreactivity
5,QVQLVESGGGLVQAGGSLRLSCAASGSTSRSYTMGWYRQAPGKEREFVASIRWSGGRTYNADSVKGRFTISRDNAKNTVYLQMNSLKPEDTAVYYCNADYYRLRFRLGWYDYWGQGTQVTVSS,high polyreactivity
6,QVQLVESGGGLVQAGGSLRLSCAASGSTSRVYAMGWYRQAPGKERELVAAINKSGTRTYYADSVKGRFTISRDNAKNTVYLQMNSLKPEDTAVYYCAADQGTYGYGGFYYWGQGTQVTVSS,high polyreactivity
7,QVQLVESGGGLVQAGGSLRLSCAASGSTSRYYDMGWYRQAPGKERELVAAITWSGGTTYYADSVKGRFTISRDNAKNTVYLQMDSLKPEDTAVYYCAVDSQTANDYDYWGQGTQVTVSS,low polyreactivity
8,QVQLVESGGGLVQAGGSLRLSCAASGSTSSTYAKGWYRQAPGKERELVATINWDGASTYYADSVKGRFTISRDNATNTVYLQMNSLKPEDTAVYYCAAQSGAVHFLEDDYWGQGTQVTVSS,low polyreactivity
9,QVQLVESGGGLVQAGGSLRLSCAASGSTSTRYAMGWYRPAPGKERELVAAISKSGGRTYYADSVKGRFTMSRDNAKNTVYLQMNSLKPEDTAVYYCNTVPGRYRTFDYWGQGTQVTVSS,high polyreactivity
10,QVQLVESGGGLVQAGGSLRLSCAASGSTSTSNAMGWYRQAPGKERELVAVISSGGSTYYADSVKGRFTISRDNAKNTVYLQMNSLKPEDTAVYYCSADARIHWFVVRYEYWGQGTQVTVSS,low polyreactivity
11,QVQLVESGGGLVQAGGSLRLSCAASGSTSTYYAMGWYRQAPGKERELVAAITLGAGRKYADSVKGRFTISRDNAKNTVYLQMNSLKPEDTAVYYCAADSHIDHGKWAYDYWGQGTQVTVSS,low polyreactivity
12,QVQLVESGGGLVQAGGSLRLSCAASGSTSWSNARGWYRQAPGKERELLAAITTGASTYYADSVKGRFTMSRDNAKNTVYYQMNSLKPEDTAVYYCAADPWVLWSYYYWGQGTQVTVSS,low polyreactivity
13,QVQLVESGGGLVQAGGSLRLSCAASGSTSWYDMGWYRQPPGKERELVASISSGDSTNYADSVKGRFTISRDNAKNTVYLQMNSLKPDDTAVYYCAADFNVGFVWGDDSDYWGQGTQVTVSS,low polyreactivity
14,QVQLVESGGGLVQAGGSLRLSCAASGSTSYDNAMGWYRQAPGKERELVASISSDGSTNYADSVKGRFTISRDNAKNTVYLQMNSLKPEDTAVYYCNVEVTRGLSHDPEYDYWGQGTQVTVSS,low polyreactivity
15,QVQLVESGGGLVQAGGSLRLSCAASGSTSYGYAMGWYRQAPGKERELVAAISYSGSSTYYADSVKGRFTISRDNAKNTVYLQMNSLKPEDTAVYYCNAKVYPGVGPKHRYDYWGQGTQVTVSS,low polyreactivity
